Measurements as given in patent publication EP4818204A1 (Nanjing Leads Biolabs Co., Ltd., dated 2026).

T1: human GDF1 protein (human, UniProt P27539 254-372, limits assumed)
T1 construct: Bought
T1 sequence (looked up): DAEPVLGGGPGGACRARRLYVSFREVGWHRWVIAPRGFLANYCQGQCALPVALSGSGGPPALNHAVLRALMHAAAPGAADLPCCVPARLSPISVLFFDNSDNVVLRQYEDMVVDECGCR

T2: human Activin B protein (human, UniProt P09529 293-407)
T2 construct: Bought; Activin B is by nature a dimer of inhibin beta B chains
T2 sequence (looked up): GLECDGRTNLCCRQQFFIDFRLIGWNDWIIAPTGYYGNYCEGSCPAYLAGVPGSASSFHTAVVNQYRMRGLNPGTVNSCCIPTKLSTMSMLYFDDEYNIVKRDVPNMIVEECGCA

T3: human GDF2 protein (human, UniProt Q9UK05 320-429)
T3 construct: Bought
T3 sequence (looked up): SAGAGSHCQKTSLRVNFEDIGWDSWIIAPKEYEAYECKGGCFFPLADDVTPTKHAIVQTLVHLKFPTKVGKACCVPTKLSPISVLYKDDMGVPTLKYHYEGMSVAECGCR

T4: Mouse GDF15 protein (mouse, UniProt Q9Z0J7 189-303)
T4 sequence: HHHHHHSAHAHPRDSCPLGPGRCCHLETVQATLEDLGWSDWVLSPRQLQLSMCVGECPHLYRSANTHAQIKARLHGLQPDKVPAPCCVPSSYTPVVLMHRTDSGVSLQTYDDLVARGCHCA

T5: Human GDF15 protein (human, UniProt Q99988 197-308)
T5 construct: Natural GDF15 is said to be a disulfide-linked homodimer; also called Human-GDF15-his
T5 sequence: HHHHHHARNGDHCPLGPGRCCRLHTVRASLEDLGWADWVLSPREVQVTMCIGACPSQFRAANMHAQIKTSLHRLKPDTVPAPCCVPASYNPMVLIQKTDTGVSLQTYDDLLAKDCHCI

T6: Cynomolgus monkey GDF15 protein (cynomolgus monkey, UniProt G7PWZ3 193-308)
T6 construct: Bought protein (Kactus Biosystems GDF-CE115); also called Cynomolgus GDF15 protein; Cynomolgus-GDF15
T6 sequence: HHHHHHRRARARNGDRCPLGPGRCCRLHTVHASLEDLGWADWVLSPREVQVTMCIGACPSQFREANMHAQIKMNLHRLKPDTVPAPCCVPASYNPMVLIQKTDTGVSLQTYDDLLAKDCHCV

T7: human GFRα1 protein (human, UniProt P56159 25-429, limits assumed)
T7 construct: Bought
T7 sequence (looked up): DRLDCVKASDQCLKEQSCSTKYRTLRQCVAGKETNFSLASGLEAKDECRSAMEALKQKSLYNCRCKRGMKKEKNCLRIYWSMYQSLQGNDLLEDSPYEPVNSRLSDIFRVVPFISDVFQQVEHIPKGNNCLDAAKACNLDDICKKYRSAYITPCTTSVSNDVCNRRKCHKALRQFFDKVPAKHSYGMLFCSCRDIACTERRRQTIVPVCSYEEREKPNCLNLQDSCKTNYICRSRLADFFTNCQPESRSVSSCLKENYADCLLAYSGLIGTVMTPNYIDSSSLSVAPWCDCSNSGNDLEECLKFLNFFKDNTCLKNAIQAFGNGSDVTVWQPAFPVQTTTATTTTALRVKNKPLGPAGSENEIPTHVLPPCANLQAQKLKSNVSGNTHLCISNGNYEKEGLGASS

T8: human BMP4 protein (human, UniProt P12644 293-408)
T8 construct: Bought
T8 sequence (looked up): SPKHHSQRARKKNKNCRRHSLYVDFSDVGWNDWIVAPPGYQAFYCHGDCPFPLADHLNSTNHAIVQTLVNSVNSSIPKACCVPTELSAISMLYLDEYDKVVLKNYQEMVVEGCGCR

T9: human Activin A protein (human, UniProt P08476 311-426)
T9 construct: Bought; Activin A is by nature a dimer of inhibin beta A chains
T9 sequence (looked up): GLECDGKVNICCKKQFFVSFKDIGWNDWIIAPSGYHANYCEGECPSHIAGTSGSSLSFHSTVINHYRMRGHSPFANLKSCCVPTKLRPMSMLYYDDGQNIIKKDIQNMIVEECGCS

T10: human GDF11 protein (human, UniProt O95390 299-407)
T10 construct: Bought
T10 sequence (looked up): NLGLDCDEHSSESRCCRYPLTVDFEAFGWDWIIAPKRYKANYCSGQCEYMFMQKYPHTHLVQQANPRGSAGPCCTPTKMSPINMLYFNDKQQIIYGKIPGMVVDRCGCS

T11: human GDF3 protein (human, UniProt Q9NR23 251-364, limits assumed)
T11 construct: Bought
T11 sequence (looked up): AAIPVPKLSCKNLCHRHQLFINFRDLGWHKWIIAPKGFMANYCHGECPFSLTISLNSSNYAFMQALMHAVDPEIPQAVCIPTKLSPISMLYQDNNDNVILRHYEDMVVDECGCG

B1: Hu21H6D2 (antibody, human IgG1, kappa, V domains shown)
VH: QVQLVQSGAEVKKPGASVKVSCKASGYTFTGYIMNWVRQAPGQRLEWMGDIDPYYGDAKYNQKFKGKVTITVDKSASTAYMELSSLRSEDTAVYYCARRDYDHGSFAYWGQGTLVTVSS
VL: EIVLTQSPDFQSVTPKEKVTITCSASSSVNYMHWYQQKPDQSPKRLIYDTSKLASGVPSRFSGSGSGTDYTLTINSLEAEDAATYYCQQWSSNPPTFGQGTKLEIKR
notes: Humanized form of murine 21H6D2; human IgG1 constant region with L234A, L235A, G237A and kappa light chain constant region; also called hu21H6D2-IgG1-mut(L234A,L235A,G237A)
B2: Hu19C4C7 (antibody, human IgG1, kappa)
heavy: QVQLVQSGAEVKKPGSSVKVSCKASGYSFTGYIMNWVRQAPGQSLEWMGDIDPYYGGPNYNQKFQGRVTITVDKSTSTAYMELSSLRSEDTAVYYCSRRDYNYGSFAYWGQGTLVTVSSASTKGPSVFPLAPSSKSTSGGTAALGCLVKDYFPEPVTVSWNSGALTSGVHTFPAVLQSSGLYSLSSVVTVPSSSLGTQTYICNVNHKPSNTKVDKKVEPKSCDKTHTCPPCPAPEAAGAPSVFLFPPKPKDTLMISRTPEVTCVVVDVSHEDPEVKFNWYVDGVEVHNAKTKPREEQYNSTYRVVSVLTVLHQDWLNGKEYKCKVSNKALPAPIEKTISKAKGQPREPQVYTLPPSREEMTKNQVSLTCLVKGFYPSDIAVEWESNGQPENNYKTTPPVLDSDGSFFLYSKLTVDKSRWQQGNVFSCSVMHEALHNHYTQKSLSLSPGK
light: QIVLTQSPATLSLSPGERATLSCRASSSVNYMHWYQQKPGQAPRPLIYATSNLATGIPARFSGSGSGTDYTLTISSLEPEDFAVYYCQQWSDNPPTFGQGTKLEIKRTVAAPSVFIFPPSDEQLKSGTASVVCLLNNFYPREAKVQWKVDNALQSGNSQESVTEQDSKDSTYSLSSTLTLSKADYEKHKVYACEVTHQGLSSPVTKSFNRGEC
notes: Humanized form of murine 19C4C7; human IgG1 constant region with L234A, L235A, G237A and kappa light chain constant region; also called hu19C4C7-IgG1-mut(L234A,L235A,G237A)
B3: HuVHH43-3 (Fc fusion)
heavy: QLQLVESGGGLVQPGGSLRLSCAASGHTYGMGWFRQAPGKAREIVSAISRSGSSTYYADSVKGRFTISRDNSKNTLYLQMNSLRAEDTAVYICGASTSALVPTTTGMYAYWGQGTRVTVSSEPKSSDKTHTCPPCPAPEAAGAPSVFLFPPKPKDTLMISRTPEVTCVVVDVSHEDPEVKFNWYVDGVEVHNAKTKPREEQYNSTYRVVSVLTVLHQDWLNGKEYKCKVSNKALPAPIEKTISKAKGQPREPQVYTLPPSREEMTKNQVSLTCLVKGFYPSDIAVEWESNGQPENNYKTTPPVLDSDGSFFLYSKLTVDKSRWQQGNVFSCSVMHEALHNHYTQKSLSLSPGK
notes: also called huVHH43-IgG1-mut(L234A,L235A,G237A); VHH humanized anti-GDF15 antibody

The binders below were run against T1, human GDF1 protein (assay: ELISA, coated protein, antibody at 4 µg/mL).

| Binder | OD value [OD 450 nm-620 nm] |
| --- | --- |
| B1 | 0.0412 |
| B2 | 0.0433 |
| B3 | 0.0504 |

The binders below were run against T2, human Activin B protein (assay: ELISA, coated protein, antibody at 4 µg/mL).

| Binder | OD value [OD 450 nm-620 nm] |
| --- | --- |
| B1 | 0.0899 |
| B2 | 0.136 |
| B3 | 0.062 |

These binders were tested against T3, human GDF2 protein (assay: ELISA, coated protein, antibody at 4 µg/mL).

| Binder | OD value [OD 450 nm-620 nm] |
| --- | --- |
| B1 | 0.0648 |
| B2 | 0.0678 |
| B3 | 0.0644 |

These binders were tested against T4, Mouse GDF15 protein (assay: BLI (Fortebio Octet), antibody on AHC sensor, GDF15 as analyte, 1:1 model).

| Binder | Kd [nM] | koff [s⁻¹] | kon [M⁻¹ s⁻¹] |
| --- | --- | --- | --- |
| B1 | 10.6 | 0.00116 | 110000 |
| B2 | 14.9 | 0.00241 | 162000 |
| B3 | 1.25 | 6.58e-05 | 52500 |

Each binder was assayed against T5, Human GDF15 protein in the same assay as above.

| Binder | Kd [nM] | koff [s⁻¹] | kon [M⁻¹ s⁻¹] |
| --- | --- | --- | --- |
| B1 | 0.0515 | 4.87e-05 | 946000 |
| B2 | 0.0264 | 2.35e-05 | 887000 |
| B3 | < 0.001 | < 1e-07 | 573000 |

What follows are binders tested against T6, Cynomolgus monkey GDF15 protein in the same assay as above.

| Binder | Kd [nM] | koff [s⁻¹] | kon [M⁻¹ s⁻¹] |
| --- | --- | --- | --- |
| B1 | 0.231 | 6.13e-05 | 265000 |
| B2 | 0.312 | 8.24e-05 | 265000 |
| B3 | < 0.001 | < 1e-07 | 205000 |

The binders below were run against T1, human GDF1 protein (assay: ELISA, coated protein).

| Binder | binding result |
| --- | --- |
| B1 | no binding (tested: 4 µg/mL) |
| B2 | no binding (tested: 4 µg/mL) |
| B3 | no binding (tested: 4 µg/mL) |

What follows are binders tested against T7, human GFRα1 protein (assay: ELISA, coated protein).

| Binder | binding result |
| --- | --- |
| B1 | no binding (tested: 4 µg/mL) |
| B2 | no binding (tested: 4 µg/mL) |
| B3 | no binding (tested: 4 µg/mL) |

Each binder was assayed against T2, human Activin B protein (assay: ELISA, coated protein).

| Binder | binding result |
| --- | --- |
| B1 | no binding (tested: 4 µg/mL) |
| B2 | no binding (tested: 4 µg/mL) |
| B3 | no binding (tested: 4 µg/mL) |

What follows are binders tested against T12, human BMP2 protein (human, UniProt P12643 283-396) (assay: ELISA, coated protein).
T12 construct: Bought
T12 sequence (P12643 283-396 limits assumed): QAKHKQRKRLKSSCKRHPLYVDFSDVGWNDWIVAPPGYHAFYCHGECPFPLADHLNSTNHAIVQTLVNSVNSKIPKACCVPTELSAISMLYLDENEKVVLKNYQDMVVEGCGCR

| Binder | binding result |
| --- | --- |
| B1 | no binding (tested: 4 µg/mL) |
| B2 | no binding (tested: 4 µg/mL) |
| B3 | no binding (tested: 4 µg/mL) |

The binders below were run against T8, human BMP4 protein (assay: ELISA, coated protein).

| Binder | binding result |
| --- | --- |
| B1 | no binding (tested: 4 µg/mL) |
| B2 | no binding (tested: 4 µg/mL) |
| B3 | no binding (tested: 4 µg/mL) |

These binders were tested against T9, human Activin A protein (assay: ELISA, coated protein).

| Binder | binding result |
| --- | --- |
| B1 | no binding (tested: 4 µg/mL) |
| B2 | no binding (tested: 4 µg/mL) |
| B3 | no binding (tested: 4 µg/mL) |

Each binder was assayed against T3, human GDF2 protein (assay: ELISA, coated protein).

| Binder | binding result |
| --- | --- |
| B1 | no binding (tested: 4 µg/mL) |
| B2 | no binding (tested: 4 µg/mL) |
| B3 | no binding (tested: 4 µg/mL) |

These binders were tested against T10, human GDF11 protein (assay: ELISA, coated protein).

| Binder | binding result |
| --- | --- |
| B1 | no binding (tested: 4 µg/mL) |
| B2 | no binding (tested: 4 µg/mL) |
| B3 | no binding (tested: 4 µg/mL) |

These binders were tested against T11, human GDF3 protein (assay: ELISA, coated protein).

| Binder | binding result |
| --- | --- |
| B1 | no binding (tested: 4 µg/mL) |
| B2 | no binding (tested: 4 µg/mL) |
| B3 | no binding (tested: 4 µg/mL) |

What follows are binders tested against T13, human TGFβ1 protein (human, UniProt P01137 279-390) (assay: ELISA, coated protein).
T13 construct: Bought
T13 sequence (P01137 279-390 limits assumed): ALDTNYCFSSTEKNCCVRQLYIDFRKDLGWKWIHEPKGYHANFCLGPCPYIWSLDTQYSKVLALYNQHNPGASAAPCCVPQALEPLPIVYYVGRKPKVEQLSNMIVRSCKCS

| Binder | binding result |
| --- | --- |
| B1 | no binding (tested: 4 µg/mL) |
| B2 | no binding (tested: 4 µg/mL) |
| B3 | no binding (tested: 4 µg/mL) |

These binders were tested against human AMH protein (human) (UniProt P03971) (assay: ELISA, coated protein, antibody at 4 µg/mL).

| Binder | OD value (OD 450 nm-620 nm) |
| --- | --- |
| B1 | 0.0537 |
| B2 | 0.0464 |
| B3 | 0.0485 |

The binders below were run against human GDF8 protein (human) (UniProt O14793) (assay: ELISA, coated protein, antibody at 4 µg/mL).

| Binder | OD value (OD 450 nm-620 nm) |
| --- | --- |
| B1 | 0.0426 |
| B2 | 0.0423 |
| B3 | 0.0421 |
